# Data reported in patent US20150374848A1, “Methods for the Treatment of Head and Neck Squamous Cell Carcinoma” (Vigilant Biosciences, Inc., priority 2010, published 2015).
# “Also recorded” adds a separate entry of the source.
# Assays:
# [1] = molecular target: CD44 as expressed on human HNSCC cell lines (T.Tn, SCC-15, Detroit-562, CAL 27) (human) (UniProt P16070); experiment: flow cytometry on CAL 27 cells, antibody at 20 ug/mL, duplicate samples
# T.Tn HNSCC cell line = experiment: FACS binding to HNSCC cell line T.Tn; set-up: species or system human; details: antibody 20 μg/mL on ice 30 minutes
# Method: (§1) The binding of chPTA-4621 and huPTA-4621 to HNSCC cell lines T.Tn, SCC-15, and Detroit-562 was assessed by flow cytometry (FACS). Cells were prepared for FACS by initially washing the cell monolayer with DPBS (without Ca^++ and Mg^++). Cell dissociation buffer (INVITROGEN, Burlington, ON; for T.Tn, SCC-15 and Detroit-562) was then used to dislodge the cells from their cell culture plates at 37° C. After centrifugation and collection, the cells were resuspended in DPBS containing MgCl2, CaCl2, and 2 percent fetal bovine serum at 4° C. (staining media) and counted, aliquoted to appropriate cell density, spun down to pellet the cells and resuspended in staining media at 4° C. in the presence of test antibodies (chimeric or humanized PTA-4621) or control antibodies (isotype control, anti-EGFR (C225; T.Tn, SCC-15 and Detroit-562). Isotype control and test antibodies were assessed at 20 μg/mL on ice for 30 minutes. For detection of bound antibody, an Alexa Fluor 546 conjugated secondary antibody was used. Prior to the addition of the secondary antibody, the cells were washed once with staining media. The secondary antibody in staining media was then added according to manufacturer's directions. […] Flow cytometric acquisition of the T.Tn, SCC-15 and Detroit-562 cells was assessed by running samples on a FACScan using the CellQuest software (BD Biosciences, Oakville, ON). […]
# SCC-15 HNSCC cell line = experiment: FACS binding to HNSCC cell line SCC-15; set-up: species or system human; details: antibody 20 μg/mL on ice 30 minutes
# Method: as §1
# [2] = test system: Detroit-562 HNSCC cell line; experiment: FACS binding to HNSCC cell line Detroit-562; set-up: species or system human; details: antibody 20 μg/mL on ice 30 minutes
# Method: as §1
# T.Tn HNSCC xenograft = experiment: established T.Tn HNSCC xenograft model; type: in vivo; details: 20 mg/kg i.p. three times per week
# Method: With reference to FIGS. 2 and 3, 6 to 8 week old female SCID mice were implanted with 10 million T.Tn cells in 100 microliters PBS solution injected subcutaneously in the right flank. The mice were randomly divided into 2 treatment groups of 10. When the average tumor volume of the mice reached approximately 264-268 mm^3, 20 mg/kg of chPTA-4621 test antibody or buffer control was administered intraperitoneally to each cohort in a volume of 300 microliters after dilution from the stock concentration with a diluent that contained 2.7 mM KCl, 1 mM KH2PO4, 137 mM NaCl and 20 mM Na2HPO4. The antibody and control samples were then administered three times per week for the duration of the study. Tumor growth was measured about every 7 days with calipers. The study was completed after ten doses of antibody. Body weights of the animals were recorded once per week for the duration of the study. At the end of the study all animals were euthanized according to CCAC guidelines.
# [3] = test system: human breast cancer, liver cancer and prostate cancer xenografts; details: preventative and established models; cited from earlier work
molecule,measurement,setting,value
Humanized PTA-4621 (RO5429083) (antibody),fold binding compared to the humanized IgG1 isotype control,[1],37 fold
"chPTA-4621: chimeric PTA-4621 comprising VH and VL domains of SEQ ID NO:1 and SEQ ID NO:2 (antibody, V domains shown, human constant regions without entry; Synthetically generated peptide) VH: EVKLLESGGGLVQPGGSLKLSCATSGFDFSRYWMSWVRQAPGKGLEWIGEVNPDSTSINYTPSLKDQFIISRDNAKNTLDLQMSKVSSEDTALYYCTRPNYYGSRYHYYAMDYWGQGTSVTVSS VL: DIQMTQTTSSLSVSLGDRVTINCRASQDINNYLNWYQQKPDGTVKLLIYYTSRLHSGVPSRFSGSGSGTDFSLTISNLEKEDVATYFCQQGSTLPFTFGSGTKLEIK",binding to T.Tn cell line (FACS),T.Tn HNSCC cell line,bind
same,binding to SCC-15 cell line (FACS),SCC-15 HNSCC cell line,bind
same,binding to Detroit-562 cell line (FACS),[2],bind
same,clinical signs of toxicity / tolerability,T.Tn HNSCC xenograft,no clinical signs of toxicity; also recorded: well-tolerated
same,mean body weight between the groups at end of treatment period,T.Tn HNSCC xenograft,no significant difference
same,reduction of tumor growth compared to buffer treated group,"T.Tn HNSCC xenograft; ten doses, day 105, p=0.0068",54.9%
"PTA-4621: murine monoclonal anti-CD44 antibody produced by hybridoma ATCC PTA-4621; VH SEQ ID NO:1, VL SEQ ID NO:2 (antibody, V domains shown, Synthetically generated peptide) VH: EVKLLESGGGLVQPGGSLKLSCATSGFDFSRYWMSWVRQAPGKGLEWIGEVNPDSTSINYTPSLKDQFIISRDNAKNTLDLQMSKVSSEDTALYYCTRPNYYGSRYHYYAMDYWGQGTSVTVSS VL: DIQMTQTTSSLSVSLGDRVTINCRASQDINNYLNWYQQKPDGTVKLLIYYTSRLHSGVPSRFSGSGSGTDFSLTISNLEKEDVATYFCQQGSTLPFTFGSGTKLEIK",anti-tumor effects in pre-clinical xenograft models,[3],significant anti-tumor effects
